Measured values taken from the emibetuzumab library of Makowski et al. (2022).

B1: VH:VL chains; a variant is named by its letters at X, in order (parent)
chain 1: QVQLVQSGAEVKKPGASVKVSCKASGYTFTDYXMHWVRQAPGQGLEWMGXVNPNXXXTTYNQKFEGRVTMTTDTSTSTAYMELRSLRSDDTAVYYCARXNXLDXWGQGTTVTVSS
chain 2: DIQMTQSPSSLSASVGDRVTITCSVSSSVSSIYLHWYQQKPGKAPKLLIYSTSNLASGVPSRFSGSGSGTDFTLTISSLQPEDFATYYCQVYSGYPLTFGGGTKVEIK

Variants of: B1
Test: yeast display scFab, FACS + sequencing
In short: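 The non-specific binding call was based on sorted and sequenced yeast displaying a heavy-chain CDR mutant scFab library. Labelling used anti-Myc with biotinylated ovalbumin (260 μg/mL in PBSB, 3 h, room temperature) or soluble membrane proteins (130 μg/mL, 20 min on ice), and FACS collected the top 25% and bottom 10% of binders in two replicates. Positive meant present in ≥3 of 4 pooled positive samples and in no negatives, and negative meant the converse.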

| Variant | non-specific binding call |
| --- | --- |
| VEGGGYGV | no binding |
| DEGGDAGD | no binding |
| VEGGGFSV | no binding |
| SEEEGDWV | no binding |
| YEGGGDLV | no binding |
| VEGGGDWS | no binding |
| VEGGGDWA | no binding |
| SEGADAVA chain 1 G106S | no binding |
| VEEEGSAV | no binding |
| VEEEGSAD | no binding |
| VEERDAGD | no binding |
| SEEGSDAS | no binding |
| YEGGADVV | no binding |
| YEGGADVA | no binding |
| YEGGADVF | no binding |
| YEGGADVD | no binding |
| AEEEGSAA | no binding |
| SEEEGASV | no binding |
| VEGADAVA chain 1 G106S | no binding |
| YEERTAAA | binds |
| SEEGTDGV | no binding |
| SEEEGSAA | no binding |

| Variant | non-specific binding call |
| --- | --- |
| VEGGGSGV | no binding |
| DEETNSGA | binds |
| FEEGTDWY | no binding |
| AEERASAF | binds |
| VEEEGDVA | no binding |
| VEEEGDVY | no binding |
| VEGGGAAS | no binding |
| VEGGGAAA | no binding |
| VEGGGAWA | no binding |
| VEGGGSVD | no binding |
| DEGGGDGA | no binding |
| DEEEGSAA | no binding |
| VEERDDWF | no binding |
| VEEEGDWV | no binding |
| VEEEGDWD | no binding |
| AEEKGSGD | no binding |
| DEGEDAGA | no binding |
| YEGGGDWV | no binding |
| YEGGGDWF | no binding |
| YEGGGYSF | no binding |
| SEEEGSGV | no binding |
| FEETDAGD | binds |

| Variant | non-specific binding call |
| --- | --- |
| YEGAASWF | no binding |
| VEEEGAGV | no binding |
| VEEEGAGD | no binding |
| YEEGTDWY | no binding |
| SEGGDAGD | no binding |
| SEEGTAGD | no binding |
| SEEGTAGA | no binding |
| VEEEGSWV | no binding |
| SEGGDAWV | no binding |
| VEGGGFAY | no binding |
| VEERDAVA | no binding |
| YEGGGDVA | no binding |
| YEGGGDVY | no binding |
| SEEEGAGD | no binding |
| VEGGADVF | no binding |
| SEGADAGD | no binding |
| YEGGGSSA | no binding |
| VEEEGDSA | no binding |
| VEEEGSVS | no binding |
| VEEEGSVV | no binding |
| VEEEGSVD | no binding |
| VEEEGDGV | no binding |

| Variant | non-specific binding call |
| --- | --- |
| VEEEGDGA | no binding |
| VEGGGSSS | no binding |
| VEGGGSSV | no binding |
| VEGGGSSA | no binding |
| VEGAASWF | no binding |
| VEGAASWV | no binding |
| VEGGGDAA | no binding |
| VEGGGAVV | no binding |
| SEEEGDAV | no binding |
| SEEGTDWD | no binding |
| SEEGTDWY | no binding |
| VEGGGDGA | no binding |
| VEGGGDGV | no binding |
| VEGGGDGD | no binding |
| DEGGGSSA | no binding |
| DEGAGDGF | binds |
| VEEEGSGA | no binding |
| VEEEGSGV | no binding |
| SEEEGDVA | no binding |
| YEGGGSAV | no binding |
| FEERNSLD | binds |
| FEEEGSAA | no binding |

| Variant | non-specific binding call |
| --- | --- |
| VEEEGALD | no binding |
| AEERDSVV | no binding |
| DEGGGAGS | no binding |
| VEGEDAAA | no binding |
| YEGGGDGD | no binding |
| YEGGGDGA | no binding |
| VEGEDAGA | no binding |
| YEGGGFSV | no binding |
| VEGAADVD | no binding |
| DEGGDDAA | no binding |
| FEETDASA | binds |
| YEERSDAF | no binding |
| VEEEGDAA | no binding |
| VEEEGDAV | no binding |
| VEGGGDVY | no binding |
| VEGGGDVA | no binding |
| VEGGGDVD | no binding |
| VEGGGDVV | no binding |
| VEGAAAGS | no binding |
| VEGGGAGV | no binding |
| VEETSSLD | no binding |
